Results as given in the supplement of paper PMC9732359.
± gives the uncertainty stated by the source.

Test: protein stability index of a GFP-peptide fusion (yeast GPS) (PSI 1-4); higher = more stable; sorted into four equal gates, so the index is relative within each strain
How it was run: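 Sequencing reads from sorted gates were used to score each peptide. The library consisted of tiled 17-residue yeast protein peptides fused downstream of GFP on a Cherry-expressing plasmid, pooled and carried in yeast. Mid-log cultures in leucine-free medium were split into four equal gates by GFP/Cherry ratio, and each gate's plasmids were PCR-amplified and Illumina-sequenced. The protein stability index adds up, over all gates, the read frequency multiplied by the gate number.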

Sequence | protein stability index (doa10∆) | protein stability index (pdr5∆) | protein stability index (san1∆) | protein stability index (ubr1∆)
ETPEGQACGLVKNLSLM [RPB2] | 1.67 ± 0.13 | 2.25 ± 0.12 | 3.01 ± 0.11 | 3.03 ± 0.13
VLRKQKRYTVKKALAKA [RPL14A] | 2.08 ± 0.14 | 2.14 ± 0.1 | – | 1.55 ± 0.19
SHHLKADTIDHDELIDS [YGL172W/NUP49] | 3.03 ± 0.063 | 3.25 ± 0.046 | 3.08 ± 0.042 | 3.08 ± 0.038
EINSEMCHIVRKFHELN [GRR1] | 2.4 ± 0.057 | 2.81 ± 0.063 | 2.85 ± 0.064 | 2.44 ± 0.05
MGLGKTLQTISFLGYLR [ISW2] | 2.45 ± 0.044 | 2.06 ± 0.054 | 1.67 ± 0.087 | 2.13 ± 0.056
FSLLVKAEIPPEYAKVG [SIN4] | 2.54 ± 0.063 | 2.45 ± 0.045 | 2.52 ± 0.057 | 2.72 ± 0.036
VATNIVNEDPIFHPMIH [YML103C/NUP188] | 2.53 ± 0.046 | 2.63 ± 0.045 | 2.44 ± 0.045 | 2.58 ± 0.038
RQMKDVNAPLPTPFKVD [RPN2] | 3.07 ± 0.079 | 3.04 ± 0.066 | 2.79 ± 0.064 | 2.86 ± 0.053
LSQSRIKIKSLEYEISK [YIL149C/MLP2] | 2.08 ± 0.051 | 2.68 ± 0.055 | 2.37 ± 0.07 | 2.07 ± 0.041
TRDETVSLIKKYKLISR [YML103C/NUP188] | 2.48 ± 0.1 | 2.56 ± 0.13 | 2.51 ± 0.11 | 2.41 ± 0.12
SPSTSANVPSTATTGKR [RPN4] | 2.16 ± 0.18 | 2.2 ± 0.1 | 2.62 ± 0.11 | 2.65 ± 0.096
NSSNYFGELQFAFLNAM [AAR2] | 2.86 ± 0.088 | 2.94 ± 0.071 | 2.69 ± 0.071 | 2.89 ± 0.054
STAAAPIAAPKKPRKPR [PGD1] | 2.72 ± 0.086 | 3.11 ± 0.076 | 2.75 ± 0.057 | 3.15 ± 0.039
EENSSSNGNNLPLNKPR [RGR1] | 3.24 ± 0.044 | 3.29 ± 0.044 | 3.2 ± 0.041 | 3.26 ± 0.045
LAELINMTTIADRNDDD [SRB6] | 2.73 ± 0.066 | 2.64 ± 0.078 | 2.75 ± 0.062 | 2.78 ± 0.076
VSTAKFSGKYLKYLTKK [RPL22A] | 3.17 ± 0.12 | 3.29 ± 0.11 | 3.41 ± 0.2 | 3.26 ± 0.12
DEESLVKYMPEQKITEI [RPO21] | 3.23 ± 0.12 | 2.94 ± 0.098 | 2.99 ± 0.1 | 3.12 ± 0.056
YNILGNLGIPKIAYRGV [SSN2] | 2.55 ± 0.12 | 2.48 ± 0.12 | 1.55 ± 0.25 | 1.89 ± 0.1
VANSPNKRLDVIDGKLP [YDL088C/ASM4] | 3.03 ± 0.068 | 2.8 ± 0.067 | 2.42 ± 0.094 | 2.11 ± 0.058
TCVSMAPIQLKIDLLSG [RGR1] | 1.67 ± 0.046 | 1.84 ± 0.062 | 1.87 ± 0.081 | 2 ± 0.038
KGDINPEVSMIRDIREK [RPB2] | 3.29 ± 0.16 | 2.36 ± 0.082 | 3.4 ± 0.075 | 2.68 ± 0.13
KIESEDDYILSGESVMD [SRB4] | 3.4 ± 0.17 | 3.5 ± 0.1 | 3.38 ± 0.15 | 2.96 ± 0.075
PQMQCALQNLSQLPITP [YGL172W/NUP49] | 2.06 ± 0.087 | 2.23 ± 0.098 | 2.12 ± 0.1 | 2.23 ± 0.068
RLTGSLLAHKVADEEAN [RPC37] | 1.22 ± 0.057 | 1.32 ± 0.068 | 1.16 ± 0.12 | 1.06 ± 0.056
DNLLEMSDHSLDKLNCA [RRP6] | 3.28 ± 0.099 | 3 ± 0.068 | 3.22 ± 0.1 | 3.25 ± 0.049
DDPTQLVSRGGCGNTQP [RPO21] | 3.18 ± 0.12 | 2.55 ± 0.19 | 2.97 ± 0.11 | 3.04 ± 0.088
